Substitutions are numbered along the chain they refer to. Names and notes keep the numbering of the source.
B1: rice OsHSL1 wild type, SEQ ID NO: 1 (Oryza sativa Japonica Group) (protein)
chain: MADESWRTPAIVQELAAAGVEEPPSRYVLGEKDRSDELVAAELPEPIPVVDLSRLAGADEAAKLRAALQNWGFFLLTNHGVETSLMDDVLNLAREFFNQPIERKRKFSNLIDGKNFQVEGYGTDRVVTQDQILDWSDRLFLRVEPKEERNLAFWPDHPESFRDVLNEYASRTKRIRDDIVQAMSKLLGLDEDYFFDRLNKAPALARFNYYPPCPRPDLVFGVRPHSDGSLFTILLVDEDVGGLQIQRDGKWYNVQVTPNTLLINLGDTMEVLCNGIFRSPVHRVVTNAERERISLAMFYSVNDEKDIGPAAGLLDENRPARYRKVSVGEFRAGIIGKFSRRERYIDSLKI
notes: isolated enzyme, HPLC substrate-consumption assay with Fe(II), ascorbate and 2-oxoglutarate
B2: OsHSL1_F140H/L204F/I335F: SEQ ID NO.1 with F140 to histidine, L204 to phenylalanine, I335 to phenylalanine (protein)
chain: B1 chain with F140H, L204F, I335F
B3: OsHSL1_L204F/F298L/I335F: SEQ ID NO.1 with L204 to phenylalanine, F298 to leucine, I335 to phenylalanine (protein, listed as Oryza sativa)
chain: B1 chain with L204F, F298L, I335F
B4: OsHSL1_F140H/L204F/F298L/I335W: SEQ ID NO.1 with F140 to histidine, L204 to phenylalanine, F298 to leucine, I335 to tryptophan (protein)
chain: B1 chain with F140H, L204F, F298L, I335W
B5: OsHSL1_L204F/F298L/I335A: three-point mutant OsHSL1_L204F/F298L/I335A containing I335; not listed in Table 2 (protein)
chain: B1 chain with L204F, F298L, I335A
B6: rice OsHIS1 wild type, SEQ ID NO: 2 (Oryza sativa Japonica Group) (protein)
chain: MADESWRAPAIVQELAAAGVEEPPSRYLLREKDRSDVKLVAAELPEPLPVVDLSRLDGAEEATKLRVALQNWGFFLLTNHGVEASLMDSVMNLSREFFNQPIERKQKFSNLIDGKNFQIQGYGTDRVVTQDQILDWSDRLHLRVEPKEEQDLAFWPDHPESFRDVLNKYASGTKRIRDDIIQAMAKLLELDEDYFLDRLNEAPAFARFNYYPPCPRPDLVFGIRPHSDGTLLTILLVDKDVSGLQVQRDGKWSNVEATPHTLLINLGDTMEVMCNGIFRSPVHRVVTNAEKERISLAMLYSVNDEKDIEPAAGLLDENRPARYRKVSVEEFRAGIFGKFSRGERYIDSLRI
notes: as for B1

Tests used:
[1] = molecular target: T1, rice OsHSL1 (SEQ ID NO: 1) mutant OsHSL1_F140H/L204F/F298L/I335A (Oryza sativa, UniProt A0A7G1K9G4, F140H/F298L/I335A/L204F); experiment: Enzyme kinetic parameters with HPPD inhibitors as substrate (HPLC); assay type: biochemical; conditions: compared with OsHSL1 wild type; close to the OsHIS1 wild type
T1 construct: isolated enzyme, HPLC assay
T1 sequence (A0A7G1K9G4 entry or part of it F140H/L204F/F298L/I335A): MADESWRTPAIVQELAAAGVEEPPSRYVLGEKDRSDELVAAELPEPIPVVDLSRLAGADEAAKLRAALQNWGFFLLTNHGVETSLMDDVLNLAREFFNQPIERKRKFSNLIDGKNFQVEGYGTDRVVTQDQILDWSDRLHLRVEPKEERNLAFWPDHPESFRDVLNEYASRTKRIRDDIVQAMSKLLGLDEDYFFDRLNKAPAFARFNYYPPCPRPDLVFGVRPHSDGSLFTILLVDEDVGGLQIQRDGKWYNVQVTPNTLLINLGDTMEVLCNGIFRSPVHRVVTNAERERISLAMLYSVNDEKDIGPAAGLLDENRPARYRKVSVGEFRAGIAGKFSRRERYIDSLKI
Text: (§1) High Performance Liquid Chromatography (HPLC) was used to test OsHIS1 wild-type protein (the amino acid sequence of OsHIS1 wild-type is shown as SEQ ID NO 2, and the corresponding nucleotide sequence is shown as SEQ ID NO 21), the enzyme kinetic parameters of OsHSL1 wild-type protein and some OsHSL1 mutant proteins with higher reactivity and HPPD inhibitors, and the specific results are shown in Table 9-Table 12. […] Each sample was replicated three times. • e.

[2] = system: Cc1ccccc1-n1c(=O)c2c(C)c(C(=O)C3=C(O)CCCC3=O)ccc2n(C)c1=O; experiment: as above; assay type: biochemical, rice; conditions: other: pH 7.0, 30° C., about 20 min
Text: as §1

[3] = system: CS(=O)(=O)c1ccc(C(=O)C2C(=O)CCCC2=O)c([N+](=O)[O-])c1; experiment: as above; assay type: biochemical, rice; conditions: other: pH 7.0, 30° C., about 20 min
Text: as §1

[4] = system: Cc1c(C(=O)c2cnn(C)c2O)ccc(S(C)(=O)=O)c1C1=NOCC1; experiment: as above; assay type: biochemical, rice; conditions: other: pH 7.0, 30° C., about 20 min
Text: as §1

[5] = substrate: CS(=O)(=O)c1ccc(C(=O)C2C(=O)CCCC2=O)c([N+](=O)[O-])c1; experiment: as above; assay type: biochemical, rice; conditions: other: pH 7.0, 30° C., about 20 min; remark: listed apart in the source
Text: as §1

[6] = Catalytic activity of HSL proteins on HPPD inhibitors (HPLC, substrate consumption); assay type: biochemical; conditions: 30° C., 10 h, protein 0.5 mg/mL; for Catalytic efficiency (%) Compound A: substrate Compound A 50 μM; for Catalytic efficiency (%) benzobicyclon technical: substrate benzobicyclon technical 50 μM; for Catalytic efficiency (%) Mesotrione: substrate mesotrione 50 μM; for Catalytic efficiency (%) methyl-benquitrione: substrate methyl-benquitrione 50 μM; for Catalytic efficiency (%) pyraquinate technical: substrate pyraquinate technical 50 μM; for Catalytic efficiency (%) tefuryltrione: substrate tefuryltrione 50 μM; for Catalytic efficiency (%) tembotrione: substrate tembotrione 50 μM
Method: (§2) Each sample was replicated three times. • e.
(§3) Control: refers to the addition of inhibitors to the reaction system, but not the addition of enzymes, which is regarded as the substrate surplus when the inhibitor is not catalyzed.
(§4) Sample: in the enzyme reaction system, the same volume and the same concentration (50 μM) of the inhibitor was added, and the catalytic efficiency of the enzyme to the inhibitor was observed.
(§5) Catalytic efficiency=(1−(peak area of substrate in sample)/(peak area of substrate in control))×100%.

[7] = assay type: biochemical; conditions: for Catalytic efficiency (%) topramezone: substrate topramezone 50 μM, 30° C., 10 h, protein 0.5 mg/mL
Method: as §2, §3, §4, §5

[8] = Enzyme kinetic parameter study (HPLC, Michaelis-Menten fit); assay type: biochemical; conditions: statement on Table 12
Text: as §1

[9] = substrate: Cc1ccccc1-n1c(=O)c2c(C)c(C(=O)C3=C(O)CCCC3=O)ccc2n(C)c1=O; experiment: Enzyme kinetic parameters with HPPD inhibitors as substrate (HPLC); assay type: biochemical, rice; conditions: other: pH 7.0, 30° C., about 20 min; remark: listed apart in the source
Text: as §1

Molecule | Catalytic efficiency (%) Compound A [6] | Catalytic efficiency (%) benzobicyclon technical [6] | Catalytic efficiency (%) Mesotrione [6] | Catalytic efficiency (%) methyl-benquitrione [6] | Catalytic efficiency (%) pyraquinate technical [6] | Catalytic efficiency (%) tefuryltrione [6] | Catalytic efficiency (%) tembotrione [6] | Catalytic efficiency (%) topramezone [7] | further results
CS(=O)(=O)c1ccc(C(=O)C2=C(Sc3ccccc3)C3CCC(C3)C2=O)c(Cl)c1 (stereo not drawn) [benzobicyclon technical, benzobicyclon] | – | – | – | – | – | – | – | – | affinity and catalytic efficiency (in words) [1]: better affinity and catalytic efficiency
rice OsHSL1 (SEQ ID NO: 1) mutant OsHSL1_F140H/L204F/F298L/I335A (Oryza sativa Japonica Group; F140H/F298L/I335A/L204F) | – | – | – | – | – | – | – | – | Km [2]: 22.6001 µM; kcat [2]: 0.0106 s⁻¹; Km [3]: 23.4659 µM; kcat [3]: 0.0083 s⁻¹
rice OsHSL1 (SEQ ID NO: 1) mutant OsHSL1_I335F (Oryza sativa Japonica Group; I335F) | – | – | – | – | – | – | – | – | Km [4]: 48.4211 µM; kcat [4]: 0.0057 s⁻¹
rice OsHSL1 wild type, SEQ ID NO: 1 (Oryza sativa Japonica Group) | – | – | – | – | – | – | – | – | Km [4]: 44.0732 µM; kcat [4]: 0.0011 s⁻¹
CS(=O)(=O)c1ccc(C(=O)C2C(=O)CCCC2=O)c([N+](=O)[O-])c1 [mesotrione] | – | – | – | – | – | – | – | – | affinity and catalytic efficiency (in words) [1]: better affinity and catalytic efficiency
B1 | 0% | 46% | 40% | 0% | 17% | 100% | 89% | 100% | Km [5]: 27.6770 µM; kcat [5]: 0.0002 s⁻¹; Catalytic efficiency (%) 30 min ([7]; topramezone degradation, reaction time 30 min): 79%; Catalytic efficiency (%) 60 min ([7]; topramezone degradation, reaction time 60 min): 86%; Catalytic efficiency (%) 120 min ([7]; topramezone degradation, reaction time 120 min): 93%; Catalytic efficiency (%) 300 min ([7]; topramezone degradation, reaction time 300 min): 98%; Catalytic efficiency (%) 600 min ([7]; topramezone degradation, reaction time 600 min): 100%
B2 | 35% | 100% | 89% | 23% | 2% | 100% | 36% | 40% | –
B3 | 47% | 100% | 56% | 35% | 52% | 94% | 0% | 1% | –
B4 | 98% | 100% | 88% | 90% | 17% | 70% | 55% | 0% | –
B5 | – | – | – | – | – | – | – | – | affinity and catalytic efficiency to pyraquinate technical versus wild types (in words) [8]: superior to that of OsHIS1 wild type and OsHSL1 wild type
B6 | – | – | – | – | – | – | – | – | Km [5]: 5.5811 µM; kcat [5]: 0.05957 s⁻¹; Km [9]: 16.2456 µM; kcat [9]: 0.0106 s⁻¹
